Experimental findings from paper PMC10711553, “Structural and biochemical analysis of the PARP1-homology region of PARP4/vault PARP” are described below.

Data set [1] deals with T1, PARP4 BRCT-WGR-CAT (Homo sapiens, UniProt Q9UKK3 1-573).
T1 sequence: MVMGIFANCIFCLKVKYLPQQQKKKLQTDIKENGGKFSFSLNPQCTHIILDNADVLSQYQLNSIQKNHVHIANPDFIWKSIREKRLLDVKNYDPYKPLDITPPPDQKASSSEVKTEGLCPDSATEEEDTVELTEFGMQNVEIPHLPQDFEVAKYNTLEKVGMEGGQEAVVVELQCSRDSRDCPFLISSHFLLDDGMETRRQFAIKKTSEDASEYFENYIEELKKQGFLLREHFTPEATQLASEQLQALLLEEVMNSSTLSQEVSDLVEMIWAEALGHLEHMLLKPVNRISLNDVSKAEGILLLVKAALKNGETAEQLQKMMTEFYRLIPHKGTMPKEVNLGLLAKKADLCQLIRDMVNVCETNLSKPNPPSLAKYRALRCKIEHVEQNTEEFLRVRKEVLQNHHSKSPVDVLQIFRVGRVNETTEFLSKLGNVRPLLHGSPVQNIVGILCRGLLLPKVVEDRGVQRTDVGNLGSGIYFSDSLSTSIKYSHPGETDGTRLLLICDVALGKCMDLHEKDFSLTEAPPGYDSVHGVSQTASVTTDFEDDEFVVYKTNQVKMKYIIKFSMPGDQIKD
Description: fluorescence polarization; 30 nM RNA; apparent Kd; FP: 50 mM Tris pH 7.5, 50 mM NaCl, 0.05% NP40, 2 mM DTT, 5% glycerol, room temperature 30 min; EMSA: same but 20% glycerol, 100 nM nucleic acid, room temperature 30 min, gel at 4 C in Tris-glycine. The following applies: protein: recombinant; tags: N-terminal His-SUMO tag, cleaved with TEV; label: 5'-6-FAM; Mfold secondary structure, annealed.

Data set [2] addresses T2, PARP4 WGR-CAT (Homo sapiens, UniProt Q9UKK3 95-573).
T2 sequence: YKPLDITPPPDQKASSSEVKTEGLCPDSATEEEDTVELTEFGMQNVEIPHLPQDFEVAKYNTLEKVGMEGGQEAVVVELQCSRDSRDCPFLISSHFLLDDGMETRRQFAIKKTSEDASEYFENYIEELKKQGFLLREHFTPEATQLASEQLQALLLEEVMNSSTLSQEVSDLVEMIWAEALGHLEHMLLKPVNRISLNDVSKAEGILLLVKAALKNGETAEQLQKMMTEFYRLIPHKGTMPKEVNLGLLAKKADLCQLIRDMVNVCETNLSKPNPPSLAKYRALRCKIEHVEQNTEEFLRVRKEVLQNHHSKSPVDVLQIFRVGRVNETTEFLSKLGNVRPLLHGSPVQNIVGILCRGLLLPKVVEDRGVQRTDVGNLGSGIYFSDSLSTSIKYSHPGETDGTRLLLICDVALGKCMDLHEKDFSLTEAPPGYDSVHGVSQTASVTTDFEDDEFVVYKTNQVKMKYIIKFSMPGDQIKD
Description: fluorescence polarization; 30 nM RNA; FP: 50 mM Tris pH 7.5, 50 mM NaCl, 0.05% NP40, 2 mM DTT, 5% glycerol, room temperature 30 min; EMSA: same but 20% glycerol, 100 nM nucleic acid, room temperature 30 min, gel at 4 C in Tris-glycine. The settings on record: protein: recombinant; tags: N-terminal His-SUMO tag, cleaved with TEV; label: 5'-6-FAM; Mfold secondary structure, annealed. In general terms: Polarisation of emitted light reports the rotation of a fluorescent probe.

For data set [3], the target named is T1, PARP4 BRCT-WGR-CAT. Description: EMSA; 100 nM RNA; apparent Kd; FP: 50 mM Tris pH 7.5, 50 mM NaCl, 0.05% NP40, 2 mM DTT, 5% glycerol, room temperature 30 min; EMSA: same but 20% glycerol, 100 nM nucleic acid, room temperature 30 min, gel at 4 C in Tris-glycine. The settings on record: protein: recombinant, tags: N-terminal His-SUMO tag, cleaved with TEV, Mfold secondary structure, annealed. Background: In EMSA bound probe runs differently from free probe, usually more slowly.

Data set [4] has as its target T2, PARP4 WGR-CAT. Description: EMSA; 100 nM RNA; FP: 50 mM Tris pH 7.5, 50 mM NaCl, 0.05% NP40, 2 mM DTT, 5% glycerol, room temperature 30 min; EMSA: same but 20% glycerol, 100 nM nucleic acid, room temperature 30 min, gel at 4 C in Tris-glycine. The settings on record: protein: recombinant; tags: N-terminal His-SUMO tag, cleaved with TEV; label: none (SYBR Gold stain); Mfold secondary structure, annealed.

For data set [5], the target named is T2, PARP4 WGR-CAT. Kind of data set: EMSA; 100 nM DNA; FP: 50 mM Tris pH 7.5, 50 mM NaCl, 0.05% NP40, 2 mM DTT, 5% glycerol, room temperature 30 min; EMSA: same but 20% glycerol, 100 nM nucleic acid, room temperature 30 min, gel at 4 C in Tris-glycine. The settings on record: protein: recombinant; tags: N-terminal His-SUMO tag, cleaved with TEV; label: none stated (SYBR Gold stain); blunt.

B1: vtRNA1-2 (structured_RNA)
RNA: GGCUGGCUUUAGCUCAGCGGUUACUUCGAGUACAUUGUAACCACCUCUCUGGGUGGUUCGAGACCCGCGGGUGCUUUCCAGCUCUUUU
As for B1, the Kd with PARP4 BRCT-WGR-CAT [1] is 15 ± 9 µM; with PARP4 BRCT-WGR-CAT [3] (label: 5'-6-FAM), 1.5 ± 0.4 µM. Further, the binding result with PARP4 WGR-CAT [2] was “no binding”.

B2: HDV ribozyme RNA (84 nt) (structured_RNA)
RNA: GCCGGCCAUGGUCCCAGCCUCCUCGCUGGCGGCCGGUGGGCAACAUUCCGAGGGGACCGUCCCUCGGUAAUGGCGAAUGGGACA
Consider B2, for which the binding result with PARP4 WGR-CAT [4] is given as “no binding”. Further, the Kd with PARP4 BRCT-WGR-CAT [3] (label: none (SYBR Gold stain)) stood at 3.4 ± 0.3 µM.

B3: 47-bp DNA duplex (dsDNA)
DNA 1: CAGATCTACCGAATCAGTCCGACGACGCATCTGCACTACGAGGATAC
DNA 2: GTATCCTCGTAGTGCAGATGCGTCGTCGGACTGATTCGGTAGATCTG
As to B3, the binding result in the data set with PARP4 WGR-CAT [5] is given as “no binding”.
